From article PMC3049928

Substrate: Nc1ncnc2c1ncn2[C@@H]1O[C@H](COP(=O)(O)O)[C@@H](OP(=O)(O)O)[C@H]1O
Assay: purified protein
Assay type: biochemical, Homo sapiens
Details: varied pNPS, no added alcohol, 50 mM phosphate pH 6.2, 37 °C

B1: SULT1A1 (human phenol sulfotransferase, human sulfotransferase 1A1) (Homo sapiens) (protein)
chain: MELIQDTSRPPLEYVKGVPLIKYFAEALGPLQSFQARPDDLLISTYPKSGTTWVSQILDMIYQGGDLEKCHRAPIFMRVPFLEFKAPGIPSGMETLKDTPAPRLLKTHLPLALLPQTLLDQKVKVVYVARNAKDVAVSYYHFYHMAKVHPEPGTWDSFLEKFMVGEVSYGSWYQHVQEWWELSRTHPVLYLFYEDMKENPKREIQKILEFVGRSLPEETVDFVVQHTSFKEMKKNPMTNYTTVPQEFMDHSISPFMRKGMAGDWKTTFTVAQNERFDADYAEKMAGCSLSFRSEL
Q: How did the Km turn out when B1 was run?
A: 34 ± 6 µM

Q: What about the kcat of the same protein?
A: 0.000633 ± 0.000117 s⁻¹

Q: And the kcat/Km?
A: 18.3 ± 3.33 M⁻¹ s⁻¹
